Test results taken from the supplement of paper PMC12764529.
± gives the half width of the 95% confidence interval.

Columns and labels:
[1] = folding stability dG unfold from trypsin proteolysis; higher = more stable
Procedure, shortened: (§1)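 How resistant each design was to proteolysis was captured as K50, inferred by Bayesian fitting of sequencing counts. Unfolding free energy was then derived relative to a sequence-predicted unfolded-state K50 and a shared folded-state K50, per protease or combined. Digestion used trypsin and chymotrypsin at 11 threefold-diluted concentrations plus a no-protease condition, on mini-proteins under 80 residues without cysteine in a PA-tagged cDNA display construct. Designs were kept only when AlphaFold2 dimer inter-PAE was above 15.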

[2] = folding stability dG unfold from chymotrypsin proteolysis; higher = more stable
Procedure, shortened: as §1

[3] = folding stability dG unfold (combined trypsin and chymotrypsin); higher = more stable
Procedure, shortened: as §1

Row | Sequence | folding stability dG unfold [1] [kcal/mol] | folding stability dG unfold [2] [kcal/mol] | folding stability dG unfold [3] [kcal/mol]
1 | SAGGSANNPKPRIIEIPIQFDWPPGDPQQMRNLAETIADEFSDPGYRVEIDEFTPDYFMFNIKIEWSAGGSA [r15_563_TrROS] | 2.13 ± 0.1 | 2.937 ± 0.025 | 2.72 ± 0.12
2 | SAGGSAPDNKPKPVVREVEFWIMIPFKSAEQAKEIVEELMKFFGGLKVEILEVHPDGYAMIKITIYSAGGSA [r15_387_TrROS] | 3.68 ± 0.13 | 5.38 ± 0.072 | 5.15 ± 0.11
3 | SAGGSAPEPVEFTLGHPDGVPYRVTLTRLPDTDLYLVTVEFPGPEVTFTGVAPLEVLENIPGLTPVSAGGSA [r15_622_TrMRF] | 1.53 ± 0.035 | 1.88 ± 0.09 | 1.72 ± 0.068
4 | SAGGSAPESVKPPVVVVTLVLEFPDGRKLTIPVAHEELAEALEVALALPLALEHDTKLVKVEKANVSAGGSA [r15_140_TrMRF] | 0.265 ± 0.12 | 0.736 ± 0.16 | 0.558 ± 0.15
5 | SAGGSAPEVRLSASREGNTVTVLALKPVGDRTYLVVTTYEVRELGEGFLVLSSSEVIPLPDGEGFFSAGGSA [r15_725_TrMRF] | 1.626 ± 0.015 | 2.66 ± 0.044 | 2.36 ± 0.032
6 | SAGGSAPFVPPGFVKSVEEFEVTFPDGSKYRVTLIEVDGGPLVLVEKPGVGEPKTLPFEKLLELLASAGGSA [r15_329_TrMRF] | 1.88 ± 0.11 | 1.36 ± 0.075 | 1.73 ± 0.13
7 | SAGGSAPKPDWIVRIEITVKFPGKTKKIDIVIDSPEALNQIINELKDEGFKDVEPKIEWVPLEEMKSAGGSA [r15_1015_TrROS] | 0.296 ± 0.089 | 1.21 ± 0.17 | 0.915 ± 0.26
8 | SAGGSAPKTVTFTTPKGYPITVTPGDRTVTLTHPDRPLATFDVPPDVPTFTITLPDGDTATITVDDSAGGSA [r2_385_TrMRF] | -0.581 ± 0.088 | -0.408 ± 0.19 | -0.446 ± 0.11
9 | SAGGSAPPNIEREEYEFYLRNPDGKELGPAKIEVIRDPGDPDRPILTIEWPNGEPMLFDADDIEPLSAGGSA [r15_954_TrROS] | 0.18 ± 0.052 | 0.384 ± 0.17 | 0.317 ± 0.19
10 | SAGGSAPPPIKIKFKYPNGRPMELEFNPENGNYEIKQPDGEKEEVPMENIKEIRIPPGIKDVEIVPSAGGSA [r15_1043_TrROS] | -0.579 ± 0.27 | -0.0709 ± 0.41 | < -1
11 | SAGGSAPPPKWIMFKIEATMPPNDLDNVVEELLKILFGFKIKNIEVEWEQVKDGYYKVPVWVMIRFSAGGSA [r15_138_TrROS] | 3.01 ± 0.41 | 4.05 ± 0.093 | 4.12 ± 0.4
12 | SAGGSAPPTYTFMIPIKEIYVPDPDNGKPKPIPVEEFADFLMPKFGIDVEILDVHPDWIQITVTPDSAGGSA [r15_55_TrROS] | 1.81 ± 0.11 | 1.49 ± 0.091 | 1.73 ± 0.19
13 | SAGGSAPPVKVDVEELDDDLVKVTVTFPGGPFTLKLYKDGKLLKEETVPEDETATFVLPKDALIVGSAGGSA [r15_581_TrMRF] | 0.847 ± 0.051 | 1.59 ± 0.064 | 1.36 ± 0.059
14 | SAGGSAPVTEGPNSITVTRDLDPSESEEEVRALAEEILAALPADVSVSVEFDPETGTATITITFPGSAGGSA [r15_210_JUSTAS] | 2.31 ± 0.054 | 1.95 ± 0.051 | 2.15 ± 0.055
15 | SAGGSAPVTLETEFFGENGLLVRTEAVVDPATGEVTVRTETFPVITGPADNPDVVKKLLEEAGIDASAGGSA [r2_304_TrMRF] | 0.645 ± 0.059 | 0.817 ± 0.094 | 0.887 ± 0.23
16 | SAGGSARALLEELEVLSEEDRGDFTVVTVKGPAAEYPAEEVRAALEALGIAVEYDPATGEVTVYVASAGGSA [r15_599_JUSTAS] | -0.0454 ± 0.023 | 0.964 ± 0.084 | 0.69 ± 0.071
17 | SAGGSARWFLIRIEFVFGGEPRTFSVLIDVDPGEIEIEIPPELQKKGFQIKDIEIWPLPPEDLKKLSAGGSA [r15_853_TrROS] | 2.22 ± 0.04 | 3.18 ± 0.11 | 2.84 ± 0.18
18 | SAGGSASAEELAAELARRLAEELGLEVTKVEITEVTPDRVVVRVTVTVTLPNGEKVTRELTLVLEPSAGGSA [r15_276_TrROS_Hall] | 2.16 ± 0.054 | 3.24 ± 0.12 | 3.05 ± 0.11
